Results on one molecule are retold here after patent publication US20220306739A1.

The target in the experiment is T cell receptor gamma variable 9 (TRGV9) on human γδ T cells (human) (UniProt Q99603). Nature of the experiment: γδ T-cell binding (γδ-enriched T cells), readout 'Signal'.

B1: VG9B2, chimera human IgG1 mAb (silent Fc) of mouse anti-human TCR Vγ9 clone B3 (antibody, V domains shown)
VH: QGQMQQSGAELVKPGASVKLSCKTSGFTFSSNYISWLKQKPGQSLEWIAWIHGGTGGIGYNQKFTGKAQLTVDTSSTTAYMQFSSLTTEDSAIYYCARRGYGAWFAYWGQGTLVTVSA
VL: DIQMTQSPASLSASVGETVTITCRASENIHNYLAWYQQKQGKSPQLLVYNAKTLADGVPSRFSGSGSGTQYSLKINSLQPEDFGNYYCQHFWSYPLTFGAGTKLELK
B1 returned an EC50 of 560 pM.

In general, EC50 refers to the concentration giving half of the maximal effect. Low readings indicate an effect from little substance, high ones a need for much substance.
